“And” between values parts separate entries of the source, which are not always exact repeats. Equal entries are not always repeated.
T1: cytosolic domain of VanSA (enterococci, UniProt Q06240 98-384)
T1 construct: two residues at the N-terminus contributed by the vector pETCH; VanS of type-A vancomycin resistance in enterococci, Uniprot Q06240, residues 98-384, beginning at K98 just after the second predicted transmembrane helix; also called cVanSA; Cytosolic VanSA; source: E. coli BL21(DE3), purified (IMAC, HiTrap Q, S-300)
T1 sequence: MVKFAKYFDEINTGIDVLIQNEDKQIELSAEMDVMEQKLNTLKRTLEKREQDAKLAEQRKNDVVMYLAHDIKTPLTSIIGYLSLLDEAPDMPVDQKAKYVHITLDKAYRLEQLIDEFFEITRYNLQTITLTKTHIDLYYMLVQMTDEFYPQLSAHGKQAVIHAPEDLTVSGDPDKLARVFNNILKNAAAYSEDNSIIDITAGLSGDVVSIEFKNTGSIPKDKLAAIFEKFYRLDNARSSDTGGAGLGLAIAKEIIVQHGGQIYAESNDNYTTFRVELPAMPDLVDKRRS

T2: Phospho-cytosolic VanSA (enterococci, UniProt Q06240 98-384, phospho-histidine at the conserved histidine (autophosphorylated; not expected to be fully phosphorylated))
T2 construct: two residues at the N-terminus contributed by the vector pETCH; VanS of type-A vancomycin resistance in enterococci, Uniprot Q06240, residues 98-384, beginning at K98; also called autophosphorylated cVanSA; phospho-cVanSA
T2 sequence: T1 sequence

B1: full-length VanSA (enzyme)
chain: MVIKLKNKKNDYSKLERKLYMYIVAIVVVAIVFVLYIRSMIRGKLGDWILSILENKYDLNHLDAMKLYQYSIRNNIDIFIYVAIVISILILCRVMLSKFAKYFDEINTGIDVLIQNEDKQIELSAEMDVMEQKLNTLKRTLEKREQDAKLAEQRKNDVVMYLAHDIKTPLTSIIGYLSLLDEAPDMPVDQKAKYVHITLDKAYRLEQLIDEFFEITRYNLQTITLTKTHIDLYYMLVQMTDEFYPQLSAHGKQAVIHAPEDLTVSGDPDKLARVFNNILKNAAAYSEDNSIIDITAGLSGDVVSIEFKNTGSIPKDKLAAIFEKFYRLDNARSSDTGGAGLGLAIAKEIIVQHGGQIYAESNDNYTTFRVELPAMPDLVDKRRS
notes: VanS sensor histidine kinase of type-A vancomycin resistance in enterococci, Uniprot Q06240, full length; the construct has 392 amino acids including the C-terminal PG-6xHis tag; Membrane protein; kept in 10 mM LDAO for SEC and storage and in 9 mM C12E8 for the SPR injections; source: E. coli BL21(DE3), purified from the membrane fraction (DDM extraction, IMAC, Sephacryl S-300 in LDAO)
B2: fluorescently-labeled VanRA (natural protein, enterococci)
chain: CMSDKILIVDDEHEIADLVELYLKNENYTVFKYYTAKEALECIDKSEIDLAILDIMLPGTSGLTICQKIRDKHTYPIIMLTGKDTEVDKITGLTIGADDYITKPFRPLELIARVKAQLRRYKKFSGVKEQNENVIVHSGLVINVNTHECYLNEKQLSLTPTEFSILRILCENKGNVVSSELLFHEIWGDEYFSKSNNTITVHIRHLREKMNDTIDNPKYIKTVWGVGYKIEK
modifications: fluorescein maleimide on the cysteine introduced at the N-terminus
notes: additional cysteine at the N-terminus, introduced by site-directed mutagenesis instead of the glycine of the wild-type construct; VanR response regulator of type-A vancomycin resistance in enterococci, Uniprot Q06239; Expression and purification of the cysteine mutant are not described; After labelling it was passed over Sephacryl S-100 HR; also called fluorescein-labeled VanRA; …
B3: 1D4-tagged VanRA (natural protein)
chain: MSDKILIVDDEHEIADLVELYLKNENYTVFKYYTAKEALECIDKSEIDLAILDIMLPGTSGLTICQKIRDKHTYPIIMLTGKDTEVDKITGLTIGADDYITKPFRPLELIARVKAQLRRYKKFSGVKEQNENVIVHSGLVINVNTHECYLNEKQLSLTPTEFSILRILCENKGNVVSSELLFHEIWGDEYFSKSNNTITVHIRHLREKMNDTIDNPKYIKTVWGVGYKIEK
notes: VanR response regulator of type-A vancomycin resistance in enterococci, Uniprot Q06239; the 1D4 tag and linker add 13 residues to the wild-type VanRA construct; Expression and purification of this tagged construct are not described; also called tagged VanRA construct; immobilized VanRA

Legend:
[1] = biological target: the molecule itself; experiment: SEC; Sephacryl S-300 in 50 mM Tris pH 7.8, 500 mM NaCl, 5 mM MgCl2, 10 mM LDAO; elution compared with the 80 kDa apotransferrin standard
[2] = biological target: T1, cytosolic domain of VanSA; experiment: fluorescence polarisation; fluorescence anisotropy; cVanSA titrated into 40 nM fluorescein-labeled VanRA; 50 mM Tris pH 7.8, 100 mM NaCl, 5 mM MgCl2, 0.05% Tween-20; room temperature; settings: both partners purified
[3] = biological target: T1, cytosolic domain of VanSA; experiment: SPR; 1D4-tagged VanRA captured on Rho1D4 antibody amine-coupled to a GLC chip (ProteOn XPR36); cytosolic histidine kinase as analyte; 25°C; 50 mM BIS-TRIS pH 6.0, 150 mM NaCl, 10 mM MgCl2, 0.005% Tween 20; one-site model fitted to equilibrium responses; concentrations for dimers; settings: both partners purified
Phospho-cytosolic VanSA = biological target: T2, Phospho-cytosolic VanSA; experiment: as above; settings: both partners purified
full-length VanSA = biological target: B1; experiment: SPR; 1D4-tagged VanRA captured on Rho1D4 antibody on a GLC chip; full-length VanSA as analyte in running buffer + 9 mM C12E8; 25°C; 50 mM BIS-TRIS pH 6.0, 150 mM NaCl, 10 mM MgCl2, 0.005% Tween 20; one-site model fitted to equilibrium responses; concentrations for dimers; settings: both partners purified

Binder: B1
- binding result [1]: binds

Binder: B2
- Kd [2]: 0.2 µM and 0.1 to 1 µM

Binder: B3
- Kd [3]: 6.8 ± 1.4 µM
- Kd (Phospho-cytosolic VanSA): 2.5 ± 0.8 µM
- Kd (full-length VanSA): 1.9 ± 0.7 µM
